In the supplement of paper PMC9170038:

Test system: K4 kissing-loop RNA reporter
Experiment: apparent KD of K4 kissing-loop reporter; higher = weaker reporter binding
Conditions: Eterna round: R107
Protocol: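 RNA-MaP round R107: designed RNA switches with theophylline, tryptophan, arginine or FMN aptamers are transcribed on-chip within common flanks. They are titrated with a labelled K4 kissing-loop RNA reporter in RNA-MaP buffer (100 mM Tris pH 7.5, 80 mM KCl, 4 mM MgCl2), without ligand or with the indicated ligand. Median apparent KD per design.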

[1] = input ligand: theophylline 20 uM
[2] = input ligand: tryptophan 2.4 mM
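Further: bound reporter read as fluorescence of individual clusters on recovered sequencing chips by microscopy, with normalized cluster intensities fitted with a binding model.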

Sequence | apparent KD of K4 kissing-loop reporter (input ligand: FMN 200 uM) [nM] | apparent KD of K4 kissing-loop reporter (input ligand: arginine 13.2 mM) [nM] | apparent KD of K4 kissing-loop reporter (input ligand: none) [nM] | apparent KD of K4 kissing-loop reporter [1] [nM] | apparent KD of K4 kissing-loop reporter [2] [nM]
GCCUAGCAGGGAAGGAGCGGCAUAGGCAUAGAUAAUAUGCAGUUAGUGAUGUUAACACUAUGCCAGGUAGGUCGCCCUGCUAGGC [KL-SSArg B8] | 201 | 95.4 | 192 | 120 | 125
GCCUGGGCACGAAGGAGCGCCGUGACAGGUUACUGCAUUGGGCAGUGAUGUUGCUCAAUCUGGCAGGUAGGUCGCGUGCCCAGGC | 106 | 114 | 110 | 120 | 113
GCCUUAUAUCCAGCUACAGCUCUUUUUGGUCGAGGACCGGUACGGCCGCCACUCGAAUGAUAGUGAUGUUAUCGUUUUGUACUAA [JR_Nu_ExcTryptoA_Sub024] | 97.9 | 112 | 108 | 101 | 54.7
GCCUUAUAUCGAGCUACAGCUCGAUUUGGUCGAGGACCGGUACGGCCGCCACUCGAAUGAUAGUGAUGUUAUCAUUAUGGCCUAA [JR_ExcTryptoA_Sub022] | 185 | 137 | 183 | 130 | 148
GCGAACAUUCGCAGUGAUGUUGCGACGGAAGGAGCGCGUGAAAACGCAGGUAGGUCGCCGACAAAAUUAAUUUUAAUGUGUUCGC [Arginine A K4 27] | 373 | 440 | 488 | 471 | 315
GCGGACAUUCGCAGUGAUGUUGCGACGGAAGGAGCGCGUGAAAACGCAGGUAGGUCGCCGACAAAAUUAAUUUUAAUGUGUUCGC [Arginine A K4 30] | 362 | 387 | 394 | 415 | 306
GCGGGCCAGACGGCCGCCACUCCGGGCAGUGAUGUUGCGAAAAUUCUACUAGAGUGAUGUUCUACGAGGACCGGGUCGGAACGCG [Exclusion Tryptophan B Gf 12] | 370 | 476 | 538 | 495 | 257
GCGGGCCCGGGAGGAUAUGAGUCGAGUGAUGUUCGGCGGUCCAUGCCGUUGCGGCGUUAAGCCCUUUUAGAAGGCCCGGGCCCGC [#2 Exclusion - FMN B Attempt #2 (HarryS)] | 208 | 137 | 161 | 138 | 184
GCUAUGGUAGGAAGGAGCGCUGCGUUGUUUUUACGAGUGAUGUUCGGAAGCGGCGUGUUAAAGCAGGUAGGUCGCCUACUAUAGC [Arginine B K4 24] | 162 | 135 | 184 | 172 | 154
GCUCAGGAGUGAUGUUCCAAGUGAUGUUAACGAGGACCGGUACGGCCGCCACUCGAUACGGCCGGACCGUAGGAUAAACUAGAGC [Same State - Tryptophan A (Freestyle 9)] | 200 | 171 | 183 | 313 | 244
GCUCGGGAGUGAUGUUCCAAGUGGUGUUAACGAGGACCGGUACGGCCGCCACUCGAUACGGCCGGGCCGUAGGAUAAACUGGAGC [Same State - Tryptophan A (Freestyle 13)] | 193 | 123 | 154 | 174 | 152
GGAGAGAACUGAAGGAGCGCCAAGAGAGAAGGAAAUAUAGUGAUGUUAUAUAAGAGAGAGAGGCAGGUAGGUCGCAGAGGGAGGA [#03 K4 Arginine B Exclusion] | 185 | 162 | 127 | 175 | 112
GGAUAGGACAGAGGAUAUCCUGAGGCAAGAAACUUGUCUCAUAAAGGAUGAAUCCUAGUGAUGUUAGGAGAAGGCUGUCCUAUCG [FmnBX 15 - #SwitchBubble #StaticStem #Palindromic] | 172 | 58.8 | 88 | 104 | 71.3
GGAUAGGACAGAGGAUAUGGUAGUGAUGUUACCACGAGACAAAGUCUCGAAAAGCUACAAAGUAGCCCAGAAGGCUGUCCUAUCG [FmnBX 25 #SwitchBubble #StaticStem #Palindromic] | 402 | 116 | 130 | 114 | 127
GGAUAGGACAUAGGAUAUGGGCUAGGCAAGAAUAACUUGUCUAGCAAAUCCAUGAGGAGUGAUGUUCCAGAAGGGUGUCCUAUCG [FmnBX 1 U11+G75] | 194 | 105 | 99.4 | 111 | 89.9
GGAUAGGAUAGAGGAUAUGGUAGUGAUGUUACCAAACUGGUUAAACAUGUCAGAAAACUGGCAUGACCAGAAGGUUGUCCUAUCG [FmnBX 27 U9+U75] | 80.5 | 57.1 | 70.5 | 66.9 | 61.5

Sequence | apparent KD of K4 kissing-loop reporter (input ligand: FMN 200 uM) [nM] | apparent KD of K4 kissing-loop reporter (input ligand: arginine 13.2 mM) [nM] | apparent KD of K4 kissing-loop reporter (input ligand: none) [nM] | apparent KD of K4 kissing-loop reporter [1] [nM] | apparent KD of K4 kissing-loop reporter [2] [nM]
GGAUCCACCAGUGAUGUUGGAGAAAACUCCAAGGAUAUGACGAAAGUCAGAAGGUGGUAGACUGGACAAAGUCCGGUAGGAUCCA [FmnA10 A78] | 992 | 58.5 | 360 | 228 | 193
GGAUUGCCAGUGAUGUUGGCAUAAUCUGAAGGAGCGCGUGAAAACGCAGGUAGGUCGCAGAACCUUGCCAACUGAUCGAAAGAUC [Ex Arginine A K4 30] | 145 | 165 | 155 | 185 | 150
GGCAGUGAUGUUGCCUAAGCAACGCAUGCGGAGGAUAUUCGUUCGGGAAGAAGGCCGCAGCGUUCUCUCGAGUGAUGUUCGAGUA [Same State FMN A GF 21] | 161 | 176 | 176 | 171 | 166
GGCAUAUGAAAUCGCCUAGAGAGAAAGGAUACCAGCACCCGGCGGUGCCCUUGGCAGCCUAGCCCAGUGAUGUUGGGUCCUCUAA [Rasoonanxe] | 228 | 149 | 167 | 296 | 144
GGCAUGCAUGGAAACAUGCAUGCCAUGCCUCGAGGACCGGUACGGCCGCCACUCGUUAAAAGAAAUGCCAGUGAUGUUGGCCGAA | 443 | 430 | 528 | 500 | 175
GGCCGGAAGGCGAGCGCUCCCACUCCGGAAGGAGCGCCCGCAAGGGCAGGUAGGUCGCCGGAGUGAUGUUCCGGUGGAGGGCUCG [#2 Exclusion - Arginine A Attempt #20 (Inspired by Omei)] | 185 | 308 | 379 | 8.89 | 136
GGGAAGUACGGAGGAUAUGCACUGAGGAGGAGAAUAUAGUGAUGUUAUAUAAGAGGAAGGAGAAGAGUAGAAGGCCGUGGAAAGG [SSFMNB.C] | 175 | 115 | 228 | 151 | 117
GGGAGUAGUGCGGCCGCCACUGAGAAAGAAGAAGAAUAUAGUGAUGUUAUAUAGGAAGGGAAGAACAGGACCGGGCAUUAGAUUU [SSTRyptB.Y] | 240 | 306 | 380 | 311 | 222
GGGAGUGAUGUUCCCACGUUGUCGGUCCUCCGAGGACCGGUACGGCCGCCACUCGCGACCCAGUGAUGUUGGGACUCACCGUACC [Exclusion Tryptophan A Gf 12] | 509 | 377 | 558 | 557 | 218
GGGCCUCUGGCUGAUACCAGUGAUAAAGGGUAAGAGACAGGGAGUGAUGUUCCCUUUAGCCACCCUUGGCAGCAGUUUAAGUUUG [Exclusion Theophylline B GF 18] | 84.8 | 82.8 | 85.5 | 86.6 | 77.3
GGGCCUCUGGCUGAUACCAGUGAUGCAGGGUCCGAGACAGGGAGUGAUGUUCCCUGCAGCCACCCUUGGCAGCAGUUUAAGUUUG [Exclusion Theophylline B GF 19] | 136 | 124 | 122 | 124 | 129
GGGCGCGGCGCGGCCGCCACUGGGCCUGGGCGCGCGCCGAGUGAUGUUCGCCUGCGGCUGGGUCGUAGGACCGGGUGCCGGCUGG [BDazzled 1] | 422 | 202 | 311 | 376 | 188
GGGUCAGUCUGAAGGAGCGGCCAGACAGAGCAGUGAUGUUGCUCCUAAUUUAAAAGUGUCGGCCAGGUAGGUCGCAGAUUGGCUC [Dienralais] | 154 | 127 | 161 | 152 | 165
GGGUGGUAGGCGGCCGCCACUCUGAGCACCCACUGAGUGAUGUUCGUGGCGUAAGCCUGUUCAUAGAGGACCGGGUUUGUUGUUC [Exclusion Tryptophan B GF 16] | 507 | 252 | 514 | 470 | 376
GGUAGCAUGGCGGCCGCCACUCUUCAUUAGUGAUGUUAAUGCCGAGUGGGCAAACUCCGCCAGGAGAGGACCGGGCCAUGCUACC | 82.6 | 75.1 | 80.8 | 62.7 | 244
GGUAGCAUGGCGGCCGCCACUGCAAAGCAUAGCUACGGAAACGUAGCUACAGAGUGAUGUUCUGGCAGGACCGGGCCAUGCUACC | 675 | 487 | 692 | 683 | 330
